Measurements taken from patent US20230340119A1 (ARBELE, published 2023).
Numbering of substitutions follows the chain as printed. “And” between values parts separate entries of the source, which are not always exact repeats. Identical values can stand only once.

T1: Fibroblast activation protein alpha (FAP) on DLD1-FAP cells (UniProt Q12884 1-760, limits assumed)
T1 sequence (looked up): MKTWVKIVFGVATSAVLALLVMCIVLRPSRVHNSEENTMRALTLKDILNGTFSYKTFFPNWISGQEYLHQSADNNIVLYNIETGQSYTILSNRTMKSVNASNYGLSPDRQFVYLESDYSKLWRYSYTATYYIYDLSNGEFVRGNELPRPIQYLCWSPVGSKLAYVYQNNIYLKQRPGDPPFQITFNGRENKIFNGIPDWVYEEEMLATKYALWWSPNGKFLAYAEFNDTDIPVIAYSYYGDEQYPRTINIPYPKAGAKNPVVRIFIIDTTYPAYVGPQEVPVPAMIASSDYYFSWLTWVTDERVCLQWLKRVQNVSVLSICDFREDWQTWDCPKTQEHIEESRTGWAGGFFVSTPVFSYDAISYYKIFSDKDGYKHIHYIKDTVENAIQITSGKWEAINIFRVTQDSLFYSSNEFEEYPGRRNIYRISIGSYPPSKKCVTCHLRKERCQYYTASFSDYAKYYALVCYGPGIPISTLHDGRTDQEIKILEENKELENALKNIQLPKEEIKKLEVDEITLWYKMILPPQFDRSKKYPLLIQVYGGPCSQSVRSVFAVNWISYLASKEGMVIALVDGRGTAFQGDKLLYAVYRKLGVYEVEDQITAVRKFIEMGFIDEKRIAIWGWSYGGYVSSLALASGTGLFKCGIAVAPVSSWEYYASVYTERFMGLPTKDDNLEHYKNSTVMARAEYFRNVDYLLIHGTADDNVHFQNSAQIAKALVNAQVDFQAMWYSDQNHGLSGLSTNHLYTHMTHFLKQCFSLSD

B1: h10Ta-wt (bispecific antibody)
light: DIQMTQSPSSLSASVGDRVTITCRASQDIRNYLNWYQQKPGKAPKLLIYYTSRLESGVPSRFSGSGSGTDYTLTISSLQPEDFATYYCQQGNTLPWTFGQGTKVEIKGAPGGGTHTCPPCPAPELLGGPSVFLFPPKPKDTLMISRTPEVTCVVVDVSQEDPEVQFNWYVDGVEVHNAKTKPREEQFNSTYRVVSVLTVLHQDWLNGKEYKCKVSNKGLPSSIEKTISKAKGQPREPQVYTLPPSREEMTKNQVSLSCAVKGFYPSDIAVEWESNGQPENNYKTTPPVLDSDGSFFLVSKLTVDKSRWQQGNVFSCSVMHEALHNHYTQKSLSLSPGK
heavy: EVQLLESGGGLVQPGGSLRLSCAASGFTFSSYAMSWVRQAPGKGLEWVAVIDSNGGSTYYPDTVKDRFTISRDNSKNTLYLQMNSLRAEDTAVYYCSSYTNLGAYWGQGTLVTVSAGGGGSGGGGSGGGGSDIQMTQSPSSLSASVGDRVTITCRASQDISGYLNWLQQKPGKAIKRLIYTTSTLDSGVPSRFSGSGSGTDFTLTISSLQPEDFATYYCLQYASSPFTFGGGTKVEIKPAGGGGGSEVQLVESGGGLVQPGGSLRLSCAASGYSFTGYTMNWVRQAPGKGLEWVALINPYKGVSTYNQKFKDRFTISVDKSKNTAYLQMNSLRAEDTAVYYCARSGYYGDSDWYFDVWGQGTLVTVSSGAPGGGTHTCPPCPAPELLGGPSVFLFPPKPKDTLMISRTPEVTCVVVDVSQEDPEVQFNWYVDGVEVHNAKTKPREEQFNSTYRVVSVLTVLHQDWLNGKEYKCKVSNKGLPSSIEKTISKAKGQPREPQVYTLPPSREEMTKNQVSLWCLVKGFYPSDIAVEWESNGQPENNYKTTPPVLDSDGSFFLYSKLTVDKSRWQQGNVFSCSVMHEALHNHYTQKSLSLSPGK
notes: also called h10Ta with the parental Fv; h10Ta (wt anti-CD3 Fv)
B2: hB2Ta (bispecific antibody)
light: B1 light with R24Q, R30S
heavy: QVQLVQSGAEVKKPGASVKVSCKASGYSFTDYTMNWVRQAPGQGLEWMGVINPNHGISSYAQKFQGRVTMTRDTSTSTVYMELSSLRSEDTAVYYCVRRKISYDYDEGYAMDYWGQGTLVTVSSGGGGSGGGGSGGGGSDIVMTQSPDSLAVSLGERATINCKSSQNLLNSSNQKNYLAWYQQKPGQPPKLLVFFAATRESGVPDRFSGSGSGTDFTLTISSLQAEDVAVYYCQQHYSTPWTFGGGTKLEIKPAGGGGSEVQLVESGGGLVQPGGSLRLSCAASGYSFTGYTMNWVRQAPGKGLEWVALINPYKGVSTYNQKFKDRFTISVDKSKNTAYLQMNSLRAEDTAVYYCARSGYYGDSDWYFDVWGQGTLVTVSSGAPGGGTHTCPPCPAPELLGGPSVFLFPPKPKDTLMISRTPEVTCVVVDVSQEDPEVQFNWYVDGVEVHNAKTKPREEQFNSTYRVVSVLTVLHQDWLNGKEYKCKVSNKGLPSSIEKTISKAKGQPREPQVYTLPPSREEMTKNQVSLWCLVKGFYPSDIAVEWESNGQPENNYKTTPPVLDSDGSFFLYSKLTVDKSRWQQGNVFSCSVMHEALHNHYTQKSLSLSPGK
B3: h10Ta-L4 (bispecific antibody)
light: B1 light with R24Q, R30S
heavy: B1 heavy
notes: also called TriAx-A harboring L4

Experiments:
CD3 on T cells [1] = biological target: T2, CD3 on T cells (UniProt P07766 23-207); experiment: flow cytofluorimetry on peripheral blood T cells, fit of Median FI against concentration; one of three independent determinations
T2 construct: whole, on cells; also called cellular CD3; CD3 on peripheral blood T cells
T2 sequence (P07766 23-207): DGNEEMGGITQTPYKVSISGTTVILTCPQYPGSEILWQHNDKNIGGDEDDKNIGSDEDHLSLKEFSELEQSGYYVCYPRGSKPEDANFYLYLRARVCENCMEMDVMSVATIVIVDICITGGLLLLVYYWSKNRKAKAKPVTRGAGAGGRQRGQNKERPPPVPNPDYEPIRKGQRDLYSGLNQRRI
Experimental: (§1) The antibody binding to peripheral blood T cells was determined for T cell affinity over a range of concentration as shown in FIG. 8A. MFI were plotted and affinity (EC50) was determined using GraphPad PRISM. Three independent affinity determinations and their averages were indicated. […] Both h10Ta antibodies engaged CDH17 (on DLD1) and CD3. The signaling was determined according to manufacturer's protocol, at 24 hours using an antibody concentration range as indicated and Jurkat reporter cells at 100×10³ and DLD1 cells at 30×10³ per microtiter well (96-well plate). Luciferase expression/activity was measured using a multimode plate reader. […] Controls included no antibody or a CD3, CD28, CD2 agonist (Immunocult; StemCell) to induce maximal stimulation.

CD3 on T cells [2] = biological target: T2, CD3 on T cells; experiment: flow cytofluorimetry on peripheral blood T cells, EC50 from MFI, average of three determinations; h10Ta-wt, parental Fv Vk CDR1
Experimental: as §1

CD3 on T cells [3] = biological target: T2, CD3 on T cells; experiment: cell-based or functional assay
CD3 on T cells [4] = biological target: T2, CD3 on T cells; experiment: cell-based or functional assay; remark: listed apart in the source
[5] = biological target: T1, Fibroblast activation protein alpha …; experiment: cell-based or functional assay
CD3 on T cells [6] = biological target: T2, CD3 on T cells; experiment: flow cytofluorimetry on peripheral blood T cells, EC50 from MFI, average of three determinations; h10Ta-L4, modified CDRL1
Experimental: as §1

CD3 on T cells [7] = biological target: T2, CD3 on T cells; experiment: flow cytofluorimetry on peripheral blood T cells
Experimental: as §1

Binder	Kd (CD3 on T cells [1])	EC50 (CD3 on T cells [2]) [nM]	EC50 (read off the curve), NFAT-luciferase induction in Jurkat reporter cells with DLD1 cells (CD3 on T cells [3]) [nM]	EC50 for AGS killing in the presence of T cells, 24 hours, E:T 4 (CD3 on T cells [4]) [nM]	EC50 for killing DLD1 in the presence of T cells, 24 hours, E:T 4 (CD3 on T cells [4]) [nM]	EC50 of tumor cell cytotoxicity, DLD1-FAP cells with T cells, 24 hours, E:T 4 [5] [nM]	EC50 (CD3 on T cells [6]) [nM]	fold decrease in T cell affinity relative to the parental Fv (h10Ta-wt) (CD3 on T cells [7]) [fold]	fold decrease in T cell signaling, NFAT luciferase Jurkat reporter cells with DLD1 cells, 24 hours (CD3 on T cells [4]) [fold]
B1	50 nM and 54 nM and 75 nM	60	~0.4	0.0014	0.0005	–	–	–	–
B2	–	–	–	–	–	0.041	–	–	–
B3	236 nM and 358 nM and 365 nM	–	~0.8	0.002	0.0004	–	320	5	2
